Experimental data: patent publication US20240358849A1 (SUZHOU FUSE BIOSCIENCES, published 2024)
Substitutions are numbered along the chain they refer to. Numbers in names are those of the source. Each block holds one binder with its values, some of them ahead of it.

Experiments:
[1] = target: T1, human Fibroblast Activation Protein (FAP), soluble antigen (human, UniProt Q12884 26-760, biotinylated when immobilized on streptavidin sensors); assay: Affinity (nM), Table 13B
T1 construct: also called hFAP; biotinylated FAP

[2] = target: T2, IL-2hex, mutant human IL-2 (deltaA1/T3A/F42A/Y45A/L72G/C125S) (human, UniProt P60568 22-153); assay: Affinity (nM), Table 13B
T2 chain: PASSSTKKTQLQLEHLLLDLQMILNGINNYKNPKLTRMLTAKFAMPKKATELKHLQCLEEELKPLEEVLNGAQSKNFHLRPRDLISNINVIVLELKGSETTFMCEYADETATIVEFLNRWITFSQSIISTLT

[3] = target: T1, human Fibroblast Activation Protein …; assay: not stated (legend of FIG. 20B)
[4] = target: T2, IL-2hex, mutant human IL-2 …; assay: not stated (legend of FIG. 20B)
[5] = target: human FAP expressed on cells (HEK 293T-hFAP-E5; ExpiCHO-hFAP) (human, UniProt Q12884 1-760); assay: cell-based or functional assay
[6] = target: T2, IL-2hex, mutant human IL-2 …; assay: cell-based or functional assay
[7] = target: T3, human interleukin-2 (IL-2), wild type (human, UniProt P60568 21-153, biotinylated when immobilized); assay: BLI, equilibrium binding analysis, biotinylated IL-2 on streptavidin sensor, monovalent Fab-Fc fusion of D002
T3 construct: also called biotinylated IL-2; IL2 WT

[8] = target: T2, IL-2hex, mutant human IL-2 …; assay: not stated in the sentence (BLI value of FIG. 4B, there told for IL-2)
[9] = target: T1, human Fibroblast Activation Protein …; assay: BLI, FAP on streptavidin sensor, monovalent Fab-Fc fusion of D002
[10] = target: T1, human Fibroblast Activation Protein …; assay: BLI per 6.1.3, human FAP;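 for Kd: biolayer interferometry with immobilized antigen on sensors, antibody association up to 240 s then dissociation up to 420 s, reference-subtracted, global 1:1 fit with unlinked Rmax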;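 for kon: biolayer interferometry with immobilized antigen on sensors, antibody association up to 240 s then dissociation up to 420 s, reference-subtracted, global 1:1 fit with unlinked Rmax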
[11] = target: T1, human Fibroblast Activation Protein …; assay: BLI per 6.1.3, human FAP; remark: listed apart in the source;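 for Kd: biolayer interferometry with immobilized antigen on sensors, antibody association up to 240 s then dissociation up to 420 s, reference-subtracted, global 1:1 fit with unlinked Rmax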;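 for kon: biolayer interferometry with immobilized antigen on sensors, antibody association up to 240 s then dissociation up to 420 s, reference-subtracted, global 1:1 fit with unlinked Rmax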
[12] = target: T1, human Fibroblast Activation Protein …; assay: not stated (legend of FIG. 18B)
[13] = target: T1, human Fibroblast Activation Protein …; assay: not stated (legend of FIG. 27C)
[14] = target: T1, human Fibroblast Activation Protein …; assay: BLI; Table 11, antibody variants (Fab/scFv)
[15] = target: T3, human interleukin-2 (IL-2), wild type; assay: BLI; Table 11, antibody variants (Fab/scFv)
[16] = target: T2, IL-2hex, mutant human IL-2 …; assay: screening of phage libraries, monoclonal phage ELISA

T3 sequence (P60568 21-153): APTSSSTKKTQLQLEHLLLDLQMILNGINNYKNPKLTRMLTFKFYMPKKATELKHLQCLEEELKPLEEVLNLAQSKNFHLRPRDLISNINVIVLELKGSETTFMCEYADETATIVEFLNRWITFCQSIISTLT

B1: D029-HV1LV1 (bispecific antibody, V domains shown)
VH: EVQLVESGGGLVQPGGSLRLSCAASGFTFTWSFMSWVRQAPGKGLEWVSWIGPSGLYTDYADSVKGRFTISRDNSKNTLYLQMNSLRAEDTAVYYCARSQYGRYYSPDYYFDYWGQGTLVTVSS
VL: DIQMTQSPSSLSASVGDRVTITCRASQALGFYLNWYQQKPGKAPKLLIYAASSLSSGVPSRFSGSGSGTDFTLTISSLQPEDFATYYCQQGRTPPLTFGQGTKVEIKR
notes: also called D029 Rev1/S55L; D029HVILV1 (so in the source)
- Kd [1]: 1.8 nM
- Kd [2]: 427 nM
- Kd [3]: > 5000 nM
- Kd [4]: ~237 nM
- EC50 of HEK-Blue IL2 assay (pM) with HEK 293T-hFAP-E5; variant as masking moiety of a configuration 3 immunoconjugate [5]: 42 pM
- EC50 of HEK-Blue IL2 assay (pM) with HEK 293T; variant as masking moiety of a configuration 3 immunoconjugate [6]: 6060 pM

B2: anti-IL-2/anti-FAP two-in-one antibody D002 (bispecific antibody, V domains shown)
VH: EVQLVESGGGLVQPGGSLRLSCAASGFTFSRYSMSWVRQAPGKGLEWVSDISSYSTTYYADSVKGRFTISRDNSKNTLYLQMNSLRAEDTAVYYCARSQYGRYYSPDYYFDYWGQGTLVTVSS
VL: B1 VL with A28S, L29I, F31N, Y32S, S55Q, T93R, P94S, L96F
- Kd [7]: 3400 nM
- Kd [8]: ~3400 nM
- Kd [9]: ~50 nM

B3: anti-FAP antibody 872-5V1 (antibody, V domains shown)
VH: EVQLVESGGGLVQPGGSLRLSCAASGFTFRGYIMSWVRQAPGKGLEWVSWIGPEGSRTGYADSVKGRFTISRDNSKNTLYLQMNSLRAEDTAVYYCARLLYGTWFDYWGQGTLVTVSS
VL: B1 VL with A28S, L29I, G30S, F31S, S55Q, R92T, T93L, P94L, P95L, L96P
notes: KD by BLI per 6.1.3 (monovalent Fab-Fc)
- improvement of the affinity over parent 872-5 (fold) [10]: > 80 fold
- Kd [11]: < 0.1 nM
- kon [11]: 625000 M⁻¹ s⁻¹

More lines, now with the values ahead:

- Kd [12]: ~5 nM
- Kd [13]: ~50 nM
B4: anchoring moiety of FB-675 and FB-676: scFv872-5Dbl(S-S) (scFv, V domains shown)
VH: B3 VH
VL: B1 VL with A28S, L29I, G30S, F31S, S55Q, R92T, T93L, P94L, P95L, L96P
modifications: disulfide to VH at VL residue 100; disulfide to VL at VH residue 44
notes: also called scFv872-5V1

- Kd [14]: 30 nM
- Kd [15]: > 5000 nM
- binding result [16]: binds
B5: anti-IL-2/anti-FAP two-in-one antibody D001 (bispecific antibody, V domains shown)
VH: B1 VH with T30S, W31R, S32Y, F33S, W50A, G52S, S54Y, L56G, Y57G
VL: B1 VL with A28V, L29I, F31S, Y32S, S55Q, T93S, P94Y, L96Y
notes: Fab/scFv or monovalent Fab-Fc
